# Assay results as given in the RNAGym collection of RNA variant scans (doi:10.7554/elife.90254).
# B1: LINE1-mini (parent)
# chain: GGCAGAGCUCAACACAGCGUGGCAAAGUGGCUGUGGCUAGACUGCC
# Variants of: B1
# Assay: self-cleavage, relative activity (ratio to wild type); higher = more cleavage; in vitro, sequencing; the parent is a self-cleaving ribozyme
row,Variant,self-cleavage
1,A16C U32A,0.13
2,A16C U32C,0.09
3,A16C U32G,0.4
4,A16G A25U,0.31
5,A16G A25C,0.06
6,A16G A25G,0.04
7,G17A C18A,0.09
8,G17A C18U,0.14
9,G17A C18G,0.32
10,A16C G17U,0.08
11,A16C G17C,0.12
12,A16C G17A,0.07
13,A16C G44C,0.02
14,A16C G44U,0.07
15,A16C G44A,0.05
16,A16U G30C,0.45
17,A16U G30U,0.06
18,A16U G30A,0.1
19,A16U A24G,0.1
20,A16U A24C,0.1
21,A16U A24U,0.11
22,A16U G22A,0.42
23,A16U G22U,0.42
24,A16U G22C,0.28

row,Variant,self-cleavage
1,A16U C18U,0.07
2,A16U C18G,0.05
3,A16U C18A,0.05
4,A16U U20G,0.03
5,A16U U20C,0.26
6,A16U U20A,0.06
7,A16C G36U,0.07
8,A16C G36A,0.12
9,A16C G36C,0.04
10,C15U G44U,0.09
11,C15U G44A,0.26
12,C15U G44C,0.31
13,A16C U38G,0.03
14,A16C U38C,0.1
15,A16C U38A,0.13
16,A16G C37A,0.08
17,A16G C37G,0.02
18,A16G C37U,0.04
19,A16G A26U,0.52
20,A16G A26C,0.84
21,A16G A26G,0.37
22,C15U U38A,0.64
23,C15U U38G,0.04
24,C15U U38C,0.27

row,Variant,self-cleavage
1,G17A C31U,0.35
2,G17A C31G,0.08
3,G17A C31A,0.13
4,A16G G40C,0.07
5,A16G G40A,0.05
6,A16G G40U,0.05
7,A16U U28G,0.22
8,A16U U28C,0.55
9,A16U U28A,0.26
10,A16U U32G,0.29
11,A16U U32C,0.18
12,A16U U32A,0.55
13,A16U C42A,0.05
14,A16U C42G,0.07
15,A16U C42U,0.09
16,A16G A39U,0.14
17,A16G A39C,0.12
18,A16G A39G,0.07
19,A16U G17A,0.06
20,A16U G17U,0.03
21,A16U G17C,0.2
22,A16U G40C,0.05
23,A16U G40U,0.07
24,A16U G40A,0.04

row,Variant,self-cleavage
1,A16U U43G,0.02
2,A16U U43A,0.05
3,A16U U43C,0.04
4,A16G G17U,0.32
5,A16G G17C,0.31
6,A16G G17A,0.15
7,G17A A24C,0.06
8,G17A A24U,0.38
9,G17A A24G,0.18
10,A16G,0.61
11,A16C,0.11
12,A16U,0.15
13,A16C G40U,0.03
14,A16C G40A,0.05
15,A16C G40C,0.03
16,A16G G33A,0.03
17,A16G G33U,0.04
18,A16G G33C,0.05
19,A16U G35U,0.04
20,A16U G35A,0.01
21,A16U G35C,0.07
22,A16U C37G,0.07
23,A16U C37U,0.06
24,A16U C37A,0.11

row,Variant,self-cleavage
1,A16C G30U,0.05
2,A16C G30C,0.12
3,A16C G30A,0.14
4,C15U U32C,0.08
5,C15U U32A,0.09
6,C15U U32G,0.12
7,A16G G30A,0.67
8,A16G G30C,1.19
9,A16G G30U,0.31
10,A16G U32C,0.26
11,A16G U32A,0.07
12,A16G U32G,0.11
13,C15U G33C,0.09
14,C15U G33U,0.37
15,A16U G21C,0.27
16,A16U G21A,0.23
17,A16U G21U,0.19
18,A16G G21U,0.48
19,A16G G21A,0.7
20,A16G G21C,0.34
21,G17A C23G,0.13
22,G17A C23A,0.29
23,G17A C23U,0.22
24,A16U A25U,0.1

row,Variant,self-cleavage
1,A16U A25C,0.03
2,A16U A25G,0.07
3,A16G C42U,0.09
4,A16G C42G,0.03
5,A16G C42A,0.07
6,A16C G22C,0.09
7,A16C G22U,0.1
8,A16C G22A,0.1
9,A16G G35A,0.03
10,A16G G35U,0.11
11,A16G G35C,0.04
12,A16C C18U,0.09
13,A16C C18G,0.04
14,A16C C18A,0.06
15,C15U G36C,0.06
16,C15U G36U,0.12
17,C15U G36A,0.15
18,C15U U43A,0.14
19,C15U U43C,0.14
20,C15U U43G,0.44
21,A16G U28G,0.36
22,A16G U28C,0.44
23,A16G U28A,0.53
24,A16C U34A,0.04

row,Variant,self-cleavage
1,A16C U34G,0.05
2,A16C U34C,0.07
3,G17A C37A,0.05
4,A16G C18A,0.16
5,A16G C18U,0.33
6,A16G C18G,0.04
7,A16G C45A,0.14
8,A16G C45G,0.11
9,A16G C45U,0.45
10,A16C A26U,0.05
11,A16C A26C,0.04
12,A16C A26G,0.02
13,C15U G40A,0.14
14,C15U G40U,0.12
15,C15U G40C,0.07
16,A16C G33A,0.07
17,A16C G33U,0.05
18,A16C G33C,0.05
19,A16U U38C,0.04
20,A16U U38A,0.1
21,A16U U38G,0.02
22,A16G C31G,0.02
23,A16G C31A,0.03
24,A16G C31U,0.03

row,Variant,self-cleavage
1,A16G A41C,0.11
2,A16G A41G,0.15
3,A16G A41U,0.16
4,A16C C31U,0.03
5,A16C C31A,0.08
6,A16C C31G,0.03
7,A16C G27A,0.26
8,A16C G27U,0.14
9,A16C G27C,0.15
10,A16U G27U,0.13
11,A16U G27A,0.59
12,A16U G27C,0.16
13,A16C G35A,0.06
14,A16C G35U,0.03
15,A16C G35C,0.06
16,A16U C45G,0.13
17,A16U C45A,0.1
18,A16U C45U,0.11
19,A16C C46G,0.09
20,A16C C46A,0.1
21,A16C C46U,0.08
22,A16C C45U,0.07
23,A16C C45G,0.06
24,A16C C45A,0.07

row,Variant,self-cleavage
1,A16G U20C,0.37
2,A16G U20A,0.16
3,A16G U20G,0.16
4,A16G U38G,0.01
5,A16G U38A,0.4
6,A16G U38C,0.18
7,A16G U43A,0.02
8,A16G U43C,0.04
9,A16G U43G,0.08
10,A16G G19U,0.47
11,A16G G19A,1.31
12,A16G G19C,0.5
13,G17A,0.19
14,A16C G19C,0.4
15,A16C G19U,0.08
16,A16C G19A,0.18
17,A16C U28G,0.07
18,A16C U28C,0.03
19,A16C U28A,0.18
20,A16G G27U,0.68
21,A16G G27A,0.78
22,A16G G27C,0.17
23,A16C U43C,0.08
24,A16C U43A,0.04

row,Variant,self-cleavage
1,A16C A39C,0.02
2,A16C A39G,0.04
3,A16C A39U,0.09
4,A16C A25C,0.04
5,A16C A25U,0.08
6,A16C A25G,0.07
7,A16G U34G,0.08
8,A16G U34A,0.02
9,A16G U34C,0.08
10,C15U U34C,0.14
11,C15U U34A,0.08
12,C15U U34G,0.07
13,C15U G30C,0.09
14,C15U G30A,0.35
15,C15U G30U,0.6
16,A16C A24C,0.07
17,A16C A24U,0.11
18,A16C A24G,0.04
19,A16C C42G,0.09
20,A16C C42U,0.06
21,A16C C42A,0.05
22,A16C A41G,0.02
23,A16C A41U,0.05
24,A16C A41C,0.03

row,Variant,self-cleavage
1,A16C C23G,0.08
2,A16C C23U,0.45
3,A16C C23A,0.12
4,A16U G36A,0.06
5,A16U G36U,0.06
6,A16U G36C,0.07
7,A16U G44U,0.03
8,A16U G44A,0.05
9,A16U G44C,0.03
10,A16U U34G,0.02
11,A16U U34C,0.07
12,A16U U34A,0.04
13,A16U A26C,0.06
14,A16U A26U,0.13
15,A16U A26G,0.06
16,A16C G29U,0.55
17,A16C G29A,0.57
18,A16C G29C,0.77
19,G17A A39U,0.06
20,G17A A39G,0.06
21,G17A A39C,0.07
22,A16G G29C,0.4
23,A16G G29A,1.23
24,A16G G29U,0.77

row,Variant,self-cleavage
1,G17A A26C,0.34
2,G17A A26U,0.21
3,G17A A26G,0.1
4,A16U A41G,0.07
5,A16U A41U,0.07
6,A16U A41C,0.05
7,A16U G33A,0.07
8,A16U G33U,0.14
9,A16U G33C,0.07
10,G17A A41U,0.12
11,G17A A41C,0.04
12,G17A A41G,0.07
13,A16G C23G,0.64
14,A16G C23A,0.56
15,A16G C23U,0.82
16,A16G C46A,0.64
17,A16G C46G,0.68
18,A16G C46U,0.55
19,A16C C37A,0.06
20,A16C C37U,0.1
21,A16C C37G,0.02
22,A16U G19U,0.2
23,A16U G19C,0.6
24,A16U G19A,0.19

row,Variant,self-cleavage
1,C15U G35A,0.09
2,C15U G35C,0.14
3,C15U G35U,0.13
4,A16U C31U,0.03
5,A16U C31G,0.04
6,A16U C31A,0.21
7,A16G A24U,0.62
8,A16G A24C,0.13
9,A16G A24G,0.16
10,A16G G44C,0.19
11,A16G G44A,0.25
12,A16G G44U,0.05
13,A16C G21U,0.07
14,A16C G21C,0.22
15,A16C G21A,0.14
16,A16U C46U,0.1
17,A16U C46G,0.08
18,A16U C46A,0.09
19,A16G G36A,0.53
20,A16G G36C,0.05
21,A16G G36U,0.04
22,A16U A39G,0.07
23,A16U A39U,0.08
24,A16U A39C,0.08

row,Variant,self-cleavage
1,C15U U28C,1.52
2,C15U U28A,1.35
3,C15U U28G,0.31
4,A16C U20A,0.05
5,A16C U20G,0.08
6,A16C U20C,0.19
7,A16G G22U,0.63
8,A16G G22C,0.1
9,A16G G22A,0.71
10,C15U U20A,0.92
11,C15U U20G,0.49
12,C15U U20C,0.32
13,G17A A25C,0.07
14,G17A A25U,0.24
15,G17A A25G,0.07
16,C15U G29U,1.42
17,A16U G29A,0.38
18,A16U G29C,0.53
19,A16U G29U,0.39
20,A16U C23U,0.23
21,A16U C23A,0.19
22,A16U C23G,0.1
